Test: yeast display, Sf9 membrane polyspecificity reagent, FACS + sequencing; frameworks hold sequencing errors
How it was run: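 Nanobodies from a synthetic yeast display library (Saccharomyces cerevisiae BJ5465), induced 36–48 hours with galactose, were stained 1 hour at 4 °C with 10% biotinylated, detergent-solubilized Sf9 membrane reagent, enriched on streptavidin microbeads, then FACS-sorted. Anti-HA (expression) and streptavidin (reagent binding) fluorescence set low and high (top ~1%) gates. Polyreactivity labels come from the gate of origin. Genes were colony-PCR amplified, MiSeq 2 × 250 sequenced and filtered by CDR length.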

Row | Sequence | polyreactivity (PSR sort gate)
1 | QVQLVESGGGLVQAGGSLRLSCAASGRTFVRNAMAWYRQAPGKERELVAAITYGGGNTYYADSVKGRFTISRDNAKNTVYLQMNSLKPEDTAVYYCAKRRLYWSGQGWVRTYGYWGQGTQVTVSS | high polyreactivity
2 | QVQLVESGGGLVQAGGSLRLSCAASGRTFVRNAMGWYRQAPGKERELVAGITRSGGSTYYADSVKGRFTISRDNAKNTVYLQMNSLKPEDTAVYYCAKRYDVYVGTVRPYDYWGQGTQVTVSS | low polyreactivity
3 | QVQLVESGGGLVQAGGSLRLSCAASGRTFVRNAMGWYRQAPGKERELVASITSGGSTYYADSVKGRFTISRDNAKNTVYLQMNSLKAEDTAVYYCAKRTYTPVYGYYYWGQGTQVTVSS | high polyreactivity
4 | QVQLVESGGGLVQAGGSLRLSCAASGRTFVRYALGWYRQAPGKERELVAAISWNDNSTYYADSVKGRFTISRDNAKNTVYLQMNSLKPEDTAVYYCATRVLTQQPGYQAYIFPEFDYWGQGTQVTVSS | low polyreactivity
5 | QVQLVESGGGLVQAGGSLRLSCAASGRTFVRYAMGWYRQAHGKERELVAAIDSSGGRTYYADSVKGRFTISRDNAKNTVYLQMNSLKPEDTAVYYCNARRLASYRGYSWGQGTQVTVSS | high polyreactivity
6 | QVQLVESGGGLVQAGGSLRLSCAASGRTFVRYAMGWYRQAPAKERELVAVNSRRGGSTYYADSVKGRFTISRDNAKNTVYLQMNSLKPVDTAVYYFAADYVRSKYDYWGQGTQVTVSS | high polyreactivity
7 | QVQLVESGGGLVQAGGSLRLSCAASGRTFVRYAMGWYRQAPGKERELVAAISGDGASTYYADSVKGRFTISRDNAKNTVYLQMNSLKPEDTAVYYCNARSIRRYYYPDYDYWGQGTQVTVSS | high polyreactivity
8 | QVQLVESGGGLVQAGGSLRLSCAASGRTFVSNTMGWYRQAPGKERELVAAINYSVASTNYADSVKGRFTISRDNAKNTVYLQMNSLKPEDTAVYYCNRASAGWGQGTQVTVSS | low polyreactivity
9 | QVQLVESGGGLVQAGGSLRLSCAASGRTFVSYAMGWYRQAPGKETELVAAIDSSGTSTYYADSVKGRFTISRDNAKNTVYLQMNSLKPEDTAVYYCAKAWPDHWYSRYDYWGQGTQVTVSS | low polyreactivity
10 | QVQLVESGGGLVQAGGSLRLSCAASGRTFVSYVMGWYRQAPGKERELVAAIRRRGGRTYYADSVKGRFTISRDNAKNTVYLQMNSLKPEDTAVYYCAAAQPGTNAYRVGSWGQGTQVTVSS | high polyreactivity
11 | QVQLVESGGGLVQAGGSLRLSCAASGRTFVTNAMGWYRQAPGKERELVAAISSNGGSTYYADSVKGRFTISRDNAKNTVYLQMNSLKPEDTAVYYCNAEGQPLYVSWHDHRYIYGFDYWGQGTQVTVSS | low polyreactivity
12 | QVQLVESGGGLVQAGGSLRLSCAASGRTFVTNAMGWYRQAPGKERELVAAISSSGGSTYYADSVKGRFTISRDNAKNTVYLQMNSLKPEDTAVYYCAVGGQTKGQYDYWGQVTQVTVSS | low polyreactivity
13 | QVQLVESGGGLVQAGGSLRLSCAASGRTFVTNAMGWYRQAPGKERELVAAISYSGGSTTYADSVKGRFTISRDNAKNTVYLQMNSLKPEDTAVYYCNAQEDLVPKLRYYPPSDYWGQGTQVTVSS | low polyreactivity
14 | QVQLVESGGGLVQAGGSLRLSCAASGRTFVTYAMGWYRPAPGKERELVAAITGSGGRTYYADSVKGRFTISRDNAKLTVYLQMNRLKPEDTAVYYCAKDHPSGRQYDYWGQGTQVTVSS | high polyreactivity
15 | QVQLVESGGGLVQAGGSLRLSCAASGRTFVTYAMGWYRQAPGKERELVAAISASGGSTYYADSVKGRFTISRDNAKNTVYLQMNSLKTEDTAVYYCAKTYFLATPYGYWGQGTQVTVSS | low polyreactivity
16 | QVQLVESGGGLVQAGGSLRLSCAASGRTFVVNAMGWYRQAPGKERELVAAIYADSVKGRFTISRDNAKNTVYLQMNSLKPEDTAVYYCAASGGTWVYYRPEYDYWGQGTQVTVSS | low polyreactivity
17 | QVQLVESGGGLVQAGGSLRLSCAASGRTFVVNDMGWYRQAPGNDRELVAAINYNAGSTFYADSVKGRFTISRDNAKKTVYLQMNSLKPEATAVYYCATDVYGYVEYDYWGQGTQVTVSS | low polyreactivity
